{
  "source": "patent US20260001934A1",
  "key": {"[1]": {"biological_target": "α211.GS.BBz CAAR"}, "[2]": {"biological_target": "α210.GS.BBz CAAR"}, "[3]": {"biological_target": "α65P AChR.CD8H.BBz CAAR"}, "[4]": {"biological_target": "α39P AChR.CD8H.BBz CAAR", "sequence (chain, as listed by the source)": "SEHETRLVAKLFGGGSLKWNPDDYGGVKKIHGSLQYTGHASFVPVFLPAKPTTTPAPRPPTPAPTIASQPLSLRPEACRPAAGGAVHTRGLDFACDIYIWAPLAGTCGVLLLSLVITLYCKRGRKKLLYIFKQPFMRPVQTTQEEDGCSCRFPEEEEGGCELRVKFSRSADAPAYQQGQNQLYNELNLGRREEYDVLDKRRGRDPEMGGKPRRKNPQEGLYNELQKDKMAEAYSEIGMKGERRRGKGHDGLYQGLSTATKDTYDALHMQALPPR"}, "[5]": {"biological_target": "α39P AChR.CD8H.BBz CAAR", "assay": "flow cytometry, mAb 210 staining of lentivirally transduced primary human CD3+ T cells, day 5; the same gate on NTD cells reads 0.32"}, "[6]": {"biological_target": "α65P AChR.CD8H.BBz CAAR", "assay": "flow cytometry, mAb 210 staining of lentivirally transduced primary human CD3+ T cells, day 5; the same gate on NTD cells reads 0.32"}, "[7]": {"biological_target": "α211.GS.BBz CAAR", "assay": "flow cytometry, mAb 210 plus anti-rat IgG-APC on transiently transfected 293T cells, day 2; non-transfected 293T reads 0%"}, "[8]": {"biological_target": "α210.GS.BBz CAAR", "assay": "flow cytometry, mAb 210 plus anti-rat IgG-APC on transiently transfected 293T cells, day 2; non-transfected 293T reads 0%"}, "[9]": {"biological_target": "α208.GS.BBz", "assay": "flow cytometry, mAb 210 plus anti-rat IgG-APC on transiently transfected 293T cells, day 2; non-transfected 293T reads 0%; the filing says this CAAR is not expressed on the cell surface, so the low value shows absent target and not lack of affinity"}, "[10]": {"biological_target": "α39P AChR.CD8H.BBz CAAR", "assay": "flow cytometry, mAb 210 staining of lentivirally transduced Jurkat cells, day 3; the same gate on NTD cells reads 0.43"}, "[11]": {"biological_target": "α65P AChR.CD8H.BBz CAAR", "assay": "flow cytometry, mAb 210 staining of lentivirally transduced Jurkat cells, day 3; the same gate on NTD cells reads 0.43"}, "[12]": {"biological_target": "α208.GS.BBz", "assay": "flow cytometry, mAb 210 plus secondary IgG-APC on lentivirally transduced primary human T cells, day 5; the same gate on NTD cells reads 0.20; the filing says this CAAR is not surface-expressed, so the low value shows absent target and not lack of affinity"}, "[13]": {"biological_target": "α211.GS.BBz CAAR", "assay": "flow cytometry, mAb 210 plus secondary IgG-APC on lentivirally transduced primary human T cells, day 5; the same gate on NTD cells reads 0.20"}, "[14]": {"biological_target": "α210.GS.BBz CAAR", "assay": "flow cytometry, mAb 210 plus secondary IgG-APC on lentivirally transduced primary human T cells, day 5; the same gate on NTD cells reads 0.20"}, "[15]": {"biological_target": "α211.GS.BBz CAAR", "remark": "listed apart in the source"}, "[16]": {"biological_target": "α208.GS.BBz"}, "[17]": {"biological_target": "α210.GS.BBz CAAR", "remark": "listed apart in the source"}, "[18]": {"biological_target": "α65P AChR.CD8H.BBz CAAR", "remark": "listed apart in the source"}, "[19]": {"biological_target": "α39P AChR.CD8H.BBz CAAR", "remark": "listed apart in the source"}},
  "data": [
    {"substance": "mAb 192 anti-AChR B cell receptor expressed on Nalm6 cells (antibody)", "values": [
      {"measurement": "% GFP+ AChR CAAR Jurkat NFAT-GFP cells (CD3+ gate) after 12 h co-culture", "setting": "[1]", "value": 91.4, "unit": "%"},
      {"measurement": "% GFP+ AChR CAAR Jurkat NFAT-GFP cells (CD3+ gate) after 12 h co-culture", "setting": "[2]", "value": 89.5, "unit": "%"},
      {"measurement": "% GFP+ among CD3+-gated α65P CAAR Jurkat NFAT-GFP cells after 12 h co-culture, lower histogram (% (unit not given; gate frequency))", "setting": "[3]", "value": 41.4},
      {"measurement": "% of all co-cultured cells in the CD3+ GFP+ quadrant, upper dot plot, upper right (% (unit not given; quadrant frequency))", "setting": "[3]", "value": 5.96},
      {"measurement": "% GFP+ among CD3+-gated α39P CAAR Jurkat NFAT-GFP cells after 12 h co-culture, lower histogram (Nalm6 control: 4.1) (% (unit not given; gate frequency))", "setting": "[4]", "value": 6.23},
      {"measurement": "% of all co-cultured cells in the CD3+ GFP+ quadrant, upper dot plot, upper right (Nalm6 control: 1.52) (% (unit not given; quadrant frequency))", "setting": "[4]", "value": 5.44}
    ]},
    {"substance": "anti-AChR alpha subunit monoclonal antibody 210", "values": [
      {"measurement": "% of cells in the mAb 210-positive gate (% (unit not given; gate frequency))", "setting": "[5]", "value": 53.4},
      {"measurement": "% of cells in the mAb 210-positive gate (% (unit not given; gate frequency))", "setting": "[6]", "value": 13.1},
      {"measurement": "% AChR CAAR surface-positive 293T cells", "setting": "[7]", "value": 17.1, "unit": "%"},
      {"measurement": "% AChR CAAR surface-positive 293T cells", "setting": "[8]", "value": 26.3, "unit": "%"},
      {"measurement": "% AChR CAAR surface-positive 293T cells", "setting": "[9]", "value": 3.91, "unit": "%"},
      {"measurement": "% of cells in the mAb 210-positive gate (% (unit not given; gate frequency))", "setting": "[10]", "value": 68.5},
      {"measurement": "% of cells in the mAb 210-positive gate (% (unit not given; gate frequency))", "setting": "[11]", "value": 68.8},
      {"measurement": "% of cells in the mAb 210-positive gate (% (unit not given; gate frequency))", "setting": "[12]", "value": 1.14},
      {"measurement": "% of cells in the mAb 210-positive gate (% (unit not given; gate frequency))", "setting": "[13]", "value": 63.6},
      {"measurement": "% of cells in the mAb 210-positive gate (% (unit not given; gate frequency))", "setting": "[14]", "value": 41.3}
    ]},
    {"substance": "mAb 35 surface anti-AChR B cell receptor on TIB-175 hybridoma cells (antibody)", "values": [
      {"measurement": "% GFP+ AChR CAAR Jurkat reporter cells (CD3+ gate) after 12 h co-culture with TIB-175", "setting": "[15]", "value": 55.7, "unit": "%"},
      {"measurement": "% GFP+ Jurkat reporter cells (CD3+ gate) after 12 h co-culture with TIB-175; the construct is a negative control that is not on the cell surface", "setting": "[16]", "value": 2.88, "unit": "%"},
      {"measurement": "% GFP+ AChR CAAR Jurkat reporter cells (CD3+ gate) after 12 h co-culture with TIB-175", "setting": "[17]", "value": 53, "unit": "%"},
      {"measurement": "% GFP+ CAAR Jurkat NFAT-GFP cells after 12 h co-culture with TIB-175 (NTD Jurkat in the same figure: 0.81) (% (unit not given; gate frequency))", "setting": "[18]", "value": 69},
      {"measurement": "% GFP+ CAAR Jurkat NFAT-GFP cells after 12 h co-culture with TIB-175 (NTD Jurkat in the same figure: 4.1) (% (unit not given; gate frequency))", "setting": "[19]", "value": 53.7}
    ]},
    {"substance": "mAb 195 anti-AChR B cell receptor expressed on Nalm6 cells (antibody)", "values": [
      {"measurement": "% GFP+ AChR CAAR Jurkat NFAT-GFP cells (CD3+ gate) after 12 h co-culture", "setting": "[1]", "value": 94.6, "unit": "%"},
      {"measurement": "% GFP+ AChR CAAR Jurkat NFAT-GFP cells (CD3+ gate) after 12 h co-culture", "setting": "[2]", "value": 91.7, "unit": "%"},
      {"measurement": "% GFP+ among CD3+-gated α65P CAAR Jurkat NFAT-GFP cells after 12 h co-culture, lower histogram (% (unit not given; gate frequency))", "setting": "[3]", "value": 70.5},
      {"measurement": "% of all co-cultured cells in the CD3+ GFP+ quadrant, upper dot plot, upper right (% (unit not given; quadrant frequency))", "setting": "[3]", "value": 6.95},
      {"measurement": "% GFP+ among CD3+-gated α39P CAAR Jurkat NFAT-GFP cells after 12 h co-culture, lower histogram (Nalm6 control: 4.1) (% (unit not given; gate frequency))", "setting": "[4]", "value": 68.6},
      {"measurement": "% of all co-cultured cells in the CD3+ GFP+ quadrant, upper dot plot, upper right (Nalm6 control: 1.52) (% (unit not given; quadrant frequency))", "setting": "[4]", "value": 17.8}
    ]}
  ]
}
